How the values were obtained:
[1] = target: CD28/GFP fusion protein on transfected HEK293T cells (UniProt P10747); experiment: competition: flow cytometry contour plot, CD28/GFP cells co-incubated with B7-2/Cherry cells in the presence of p2TA at 1 µg ml-1 (16.0 % without peptide, Fig. 6D)
CD28-Fc (human) = CD28-Fc (human) (UniProt P10747); experiment: not stated at that place; binding to human CD28 (SPR with CD28-Fc is the only affinity experiment of the filing)
[2] = target: CD28/GFP fusion protein on transfected HEK293T cells (UniProt P10747); experiment: competition: flow cytometry contour plot, CD28/GFP cells co-incubated with B7-2/Cherry cells in the presence of p2TA at 0.3 µg ml-1 (16.0 % without peptide, Fig. 6D)
[3] = target: CD28/GFP fusion protein on transfected HEK293T cells (UniProt P10747); experiment: flow cytometry contour plot, CD28/GFP cells co-incubated with B7-2C/Cherry cells, no peptide (negative control)

Substance	percent double labeled cells (upper right quadrant) at 1 µg ml-1 p2TA [1] [%]	Kd (CD28-Fc (human)) [µM]	percent double labeled cells (upper right quadrant) at 0.3 µg ml-1 p2TA [2] [%]	percent double labeled cells (upper right quadrant) [3] [%]
(D-Ala)-p2TA-(D-Ala) (peptide)	8.1	2	10.3	–
B7-2C/Cherry fusion protein on transfected HEK293T cells (from UniProt P42081 24-329) (ligand)	–	–	–	1.5

From patent publication US20180215804A1
